{"source": "patent US12427188B2", "about": "“Pyocyanine demethylases and related phenazine degrading agents compositions, methods and systems for interfering with viability of bacteria” (priority 2020, dated 2025)", "molecules": {"B1": {"name": "PodA10: Designed PodA41-162 variant: A53N, I73T, A87V, M99V, A129T; SEQ ID NO: 4 (protein)", "chain": "MVTMTLDVKNDQVNKHDFGKPGMDVGDMDIFSDTLSVDGKQVGYDGGVCFFTNVTPDNPVTYCELTIHLDAGEIFARSLTPATLAPFTMTITGGTGEYANSKGELTVSGVATPDEKYELKLTK"}}, "key": {"[1]": {"test_system": "P. aeruginosa strain PA14", "experiment": "PodA and tobramycin liquid (planktonic) synergy experiments", "format": "cell-based, Pseudomonas aeruginosa", "conditions": "LB; PodA10 5 μM; compared to individual antibiotic controls", "procedure": "Pseudomonas aeruginosa PodA and tobramycin liquid synergy experiments. For planktonic synergy experiments, starter cultures were grown 24 h at 37° C. shaking in LB. Stationary phase cultures (usually between OD500 4-6) were aliquoted (100 μL) into 96-well clear bottom flat well plates (VWR). Antibiotics and PodA were diluted into stock concentrations to pipette 5 μL antibiotic and 2 μL PodA per well. Antibiotics were diluted into water and PodA was diluted into 50 mM HEPES (pH 7.5). Plates were incubated in a humidity Tupperware chamber lined with wet paper towel at 37° C. for 10 h. After incubation, wells were pipetted to resuspend, and each well was diluted 1:10 into fresh LB. From that mixture, 10 μL of diluted cells were pipetted into 90 μL fresh LB in 96-well flat bottom plates. Mineral Oil, light (65 μL undiluted, Sigma-Aldrich) was pipetted onto top of cultures to prevent dehydration and allow for oxygen diffusion. Microtiter plates were incubated at 37° C. inside a temperature-controlled chamber of a BioTek Synergy 4 plate reader. […] Cells from each 10 μL drips dilution were counted if colonies were between 10-100.\nPodA10 and tobramycin cell treatments (same samples from FIG. 8) were diluted in series and dilutions were plated onto LB agar. Cells were counted if a dilution contained 10-100 colonies. […]"}, "Pseudomonas aeruginosa": {"test_system": "Pseudomonas aeruginosa", "experiment": "Crystal violet biofilm assay", "format": "cell-based", "conditions": "24 h incubation, protein added from the beginning", "procedure": "Crystal violet assay. Pseudomonas aeruginosa grown overnight in LB were inoculated (1.5%, v/v) and grown for 24 h at 37° C. in 96-well round bottom plates in minimal medium (100 μL) with arginine (40 mM) as the sole carbon source. PodA was added with cells simultaneously and was present during growth and biofilm development. Planktonic cells were removed and attached cells were quantified with crystal violet staining (125 μL. 0.1% w/v), followed by washes with water and de-staining with an acetic acid (30%, v/v) mixture in water. Crystal violet was measured using a SpectraMax® M3 Microplate Reader (Molecular Devices) at an absorbance of 550 nm. Details of procedure were published previously (28)[43]."}}}
{"molecule": "B1", "values": [{"measurement": "cell viability (CFUs)", "setting": "[1]", "value": "did not increase cell death"}, {"measurement": "biofilm attachment (crystal violet)", "setting": "Pseudomonas aeruginosa", "value": "biofilm attachment defect that was comparable to that achieved by WT PodA41-162"}]}
